Measurements reported in PMC6367718 (Cell, 2019).
Residue numbers refer to the chain shown, from its start.

T1: TRV055-occupied FLAG-AT1R (human, UniProt P30556)
T1 chain 1: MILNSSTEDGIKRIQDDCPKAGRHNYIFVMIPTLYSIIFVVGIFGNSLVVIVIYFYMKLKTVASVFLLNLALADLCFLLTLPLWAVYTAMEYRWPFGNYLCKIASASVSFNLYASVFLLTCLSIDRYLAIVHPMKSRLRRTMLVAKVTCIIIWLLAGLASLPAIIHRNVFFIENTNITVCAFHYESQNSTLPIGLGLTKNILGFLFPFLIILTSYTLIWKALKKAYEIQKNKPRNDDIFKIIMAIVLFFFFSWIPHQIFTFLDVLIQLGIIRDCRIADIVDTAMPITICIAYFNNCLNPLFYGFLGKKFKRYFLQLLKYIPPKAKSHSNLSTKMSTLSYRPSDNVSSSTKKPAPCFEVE
T1 chain 2: GVYIHPF

B1: Nb.AT110, purified (VHH)
VHH: QVQLQESGGGLVQAGGSLRLSCAASGNIFDADIMGWYRQAPGKERELVASITDGGSTNYADSVKGRFTISRDNAKNTVYLQMNSLKPEDTAVYYCAAIAYPDIPTYFDYDSDYFYWGQGTQVTVSS
B2: Nb.AT110i1, carboxypeptidase A-treated (for crystallography) (VHH)
VHH: B1 VHH with A31V, N58D, I98V, Y113N

Legend:
[1] = target: T1, TRV055-occupied FLAG-AT1R; assay: radioligand binding
crystal structure = target: the molecule itself; assay: crystal structure

Binder | log EC50 (M) of the change in the log IC50 of TRV055 [1] [log M] | binding result (crystal structure)
B1 | -6.6 | –
B2 | – | binds
